IntAct's records for PubMed 23084749

B1: Protein deacetylase HDAC6 (Homo sapiens), Q9UBN7 (parent)
chain: MTSTGQDSTTTRQRRSRQNPQSPPQDSSVTSKRNIKKGAVPRSIPNLAEVKKKGKMKKLGQAMEEDLIVGLQGMDLNLEAEALAGTGLVLDEQLNEFHCLWDDSFPEGPERLHAIKEQLIQEGLLDRCVSFQARFAEKEELMLVHSLEYIDLMETTQYMNEGELRVLADTYDSVYLHPNSYSCACLASGSVLRLVDAVLGAEIRNGMAIIRPPGHHAQHSLMDGYCMFNHVAVAARYAQQKHRIRRVLIVDWDVHHGQGTQFTFDQDPSVLYFSIHRYEQGRFWPHLKASNWSTTGFGQGQGYTINVPWNQVGMRDADYIAAFLHVLLPVALEFQPQLVLVAAGFDALQGDPKGEMAATPAGFAQLTHLLMGLAGGKLILSLEGGYNLRALAEGVSASLHTLLGDPCPMLESPGAPCRSAQASVSCALEALEPFWEVLVRSTETVERDNMEEDNVEESEEEGPWEPPVLPILTWPVLQSRTGLVYDQNMMNHCNLWDSHHPEVPQRILRIMCRLEELGLAGRCLTLTPRPATEAELLTCHSAEYVGHLRATEKMKTRELHRESSNFDSIYICPSTFACAQLATGAACRLVEAVLSGEVLNGAAVVRPPGHHAEQDAACGFCFFNSVAVAARHAQTISGHALRILIVDWDVHHGNGTQHMFEDDPSVLYVSLHRYDHGTFFPMGDEGASSQIGRAAGTGFTVNVAWNGPRMGDADYLAAWHRLVLPIAYEFNPELVLVSAGFDAARGDPLGGCQVSPEGYAHLTHLLMGLASGRIILILEGGYNLTSISESMAACTRSLLGDPPPLLTLPRPPLSGALASITETIQVHRRYWRSLRVMKVEDREGPSSSKLVTKKAPQPAKPRLAERMTTREKKVLEAGMGKVTSASFGEESTPGQTNSETAVVALTQDQPSEAATGGATLAQTISEAAIGGAMLGQTTSEEAVGGATPDQTTSEETVGGAILDQTTSEDAVGGATLGQTTSEEAVGGATLAQTTSEAAMEGATLDQTTSEEAPGGTELIQTPLASSTDHQTPPTSPVQGTTPQISPSTLIGSLRTLELGSESQGASESQAPGEENLLGEAAGGQDMADSMLMQGSRGLTDQAIFYAVTPLPWCPHLVAVCPIPAAGLDVTQPCGDCGTIQENWVCLSCYQVYCGRYINGHMLQHHGNSGHPLVLSYIDLSAWCYYCQAYVHHQALLDVKNIAHQNKFGEDMPHPH
partner: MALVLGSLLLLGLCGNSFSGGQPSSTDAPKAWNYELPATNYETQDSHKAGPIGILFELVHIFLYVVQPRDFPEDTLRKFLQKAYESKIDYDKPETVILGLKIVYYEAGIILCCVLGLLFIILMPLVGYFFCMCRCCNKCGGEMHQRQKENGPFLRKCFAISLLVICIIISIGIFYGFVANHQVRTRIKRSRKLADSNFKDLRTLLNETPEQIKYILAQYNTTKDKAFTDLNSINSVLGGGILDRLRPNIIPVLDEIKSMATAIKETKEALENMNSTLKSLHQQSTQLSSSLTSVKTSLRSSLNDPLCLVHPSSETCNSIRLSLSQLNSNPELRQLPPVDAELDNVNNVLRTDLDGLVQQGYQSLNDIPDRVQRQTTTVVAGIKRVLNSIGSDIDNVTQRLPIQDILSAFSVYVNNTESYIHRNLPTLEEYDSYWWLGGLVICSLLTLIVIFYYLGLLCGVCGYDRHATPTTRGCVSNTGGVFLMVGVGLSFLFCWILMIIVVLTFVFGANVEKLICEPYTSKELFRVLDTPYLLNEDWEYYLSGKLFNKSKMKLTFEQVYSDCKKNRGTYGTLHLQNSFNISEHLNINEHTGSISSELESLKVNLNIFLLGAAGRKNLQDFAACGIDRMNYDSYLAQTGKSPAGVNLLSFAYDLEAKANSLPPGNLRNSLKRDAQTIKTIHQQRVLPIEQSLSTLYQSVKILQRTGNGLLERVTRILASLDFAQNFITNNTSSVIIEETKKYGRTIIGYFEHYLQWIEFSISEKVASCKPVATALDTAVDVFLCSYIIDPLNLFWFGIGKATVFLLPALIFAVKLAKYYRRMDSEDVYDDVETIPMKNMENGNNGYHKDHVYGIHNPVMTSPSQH

Variants of: B1
Settings: with prom1_human PROM1, O43490

Variant	effect of a mutation on the interaction
H216A;H611A	with no effect
Y570A	with no effect
Y570E	disrupting interaction strength
S568A	with no effect
S568E	disrupting interaction strength
